Test results: patent US20250121089A1, “COMPOSITIONS AND METHODS FOR ENHANCING THE EFFECT OF A TROP-2 SPECIFIC THERAPEUTIC” (priority 2023, published 2025)

How the values were obtained:
[1] = test system: A2780 cells; assay: Overall effect (cytotoxic x clonogenic effect), TTFields with or without Sacituzumab Govitecan; format: cell-based, human; details: concomitant with TTFields 1.62 V/cm RMS, 200 kHz, 72 h; re-plated, grown 7-14 days; FIG. 7
Experimental: (§1) Tests were performed on three different cell types: A549, A2780 and 4T1. A549 cells are adenocarcinomec human alveolar basal epithelial cells. A2780 is a human ovarian cancer cell line. 4T1 is a breast cancer cell line derived from the mammary gland tissue of a mouse BALB/c strain.
Ovarian carcinoma cells A2780 were treated for 72 h with TTFields at an intensity of 1.62 V/cm RMS and a frequency of 200 kHz using the Inovitro system. TTFields were applied to the cells in the absence or presence of the Trop2 inhibitor Sacituzumab Govitecan. Treated cells were harvested, re-plated, and grown for an additional 7-14 days. Colonies were stained (0.5% crystal violet solution), counted, and clonogenic effect was calculated relative to control. Overall effect was calculated by multiplying the cytotoxic and clonogenic effects.

[2] = test system: A2780 cells; assay: Cytotoxic effect (cell count by flow cytometer), TTFields with or without Sacituzumab Govitecan; format: cell-based, human; details: concomitant with TTFields 1.62 V/cm RMS, 200 kHz, 72 h; FIG. 6
Experimental: as §1
Ovarian carcinoma cells A2780 were treated for 72 h with TTFields at an intensity of 1.62 V/cm RMS and a frequency of 200 kHz using the Inovitro system. TTFields were applied to the cells in the absence or presence of the Trop2 inhibitor Sacituzumab Govitecan. Treated cells were counted using a flow cytometer, and cytotoxic effect was calculated relative to control cells.

[3] = test system: 4T1 cells; assay: Apoptosis, annexin V / 7AAD flow cytometry, TTFields with or without Sacituzumab Govitecan; format: cell-based, mouse; details: concomitant with TTFields 1.62 V/cm RMS, 150 kHz, 72 h, FIG. 11
Experimental: (§2) Tests were performed on three different cell types: A549, A2780 and 4T1. A549 cells are adenocarcinomec human alveolar basal epithelial cells. A2780 is a human ovarian cancer cell line. 4T1 is a breast cancer cell line derived from the mammary gland tissue of a mouse BALB/c strain. Lastly, like A549 cells (FIGS. 5) and A2780 cells (FIG. 8), concomitant treatment of TTFields with Sacituzumab Govitecan enhanced the apoptotic effect in 4T1 cells (FIG. 11). Mammary carcinoma cells 4T1 were treated for 72 h with TTFields at an intensity of 1.62 V/cm RMS and a frequency of 150 kHz using the Inovitro system. TTFields were applied to the cells in the absence or presence of the Trop2 inhibitor Sacituzumab Govitecan. Treated cells were double-stained with FITC-conjugated annexin V and 7-aminoactinomycin D (7AAD), and data acquisition was performed using a flow cytometer. AnnexinV−7AAD−, live cells; AnnexinV+7AAD−, cells at early apoptosis; AnnexinV+7AAD+, cells at late apoptosis.

[4] = test system: A549 cells; assay: Overall effect (cytotoxic x clonogenic effect), TTFields with or without Sacituzumab Govitecan; format: cell-based, human; details: concomitant with TTFields 1.62 V/cm RMS, 150 kHz, 72 h; re-plated, grown 7-14 days; FIG. 4
Experimental: as §1
NSCLC cells A549 were treated for 72 h with TTFields at an intensity of 1.62 V/cm RMS and a frequency of 150 kHz using the Inovitro system. TTFields were applied to the cells in the absence or presence of the Trop2 inhibitor Sacituzumab Govitecan. Treated cells were harvested, re-plated, and grown for an additional 7-14 days. Colonies were stained (0.5% crystal violet solution), counted, and clonogenic effect was calculated relative to control. Overall effect was calculated by multiplying the cytotoxic and clonogenic effects.

[5] = test system: 4T1 cells; assay: as above; format: cell-based, mouse; details: concomitant with TTFields 1.62 V/cm RMS, 150 kHz, 72 h; re-plated, grown 7-14 days; FIG. 10
Experimental: as §1
Mammary carcinoma cells 4T1 were treated for 72 h with TTFields at an intensity of 1.62 V/cm RMS and a frequency of 150 kHz using the Inovitro system. TTFields were applied to the cells in the absence or presence of the Trop2 inhibitor Sacituzumab Govitecan. Treated cells were harvested, re-plated, and grown for an additional 7-14 days. Colonies were stained (0.5% crystal violet solution), counted, and clonogenic effect was calculated relative to control. Overall effect was calculated by multiplying the cytotoxic and clonogenic effects.

[6] = test system: A549 cells; assay: Cytotoxic effect (cell count by flow cytometer), TTFields with or without Sacituzumab Govitecan; format: cell-based, human; details: concomitant with TTFields 1.62 V/cm RMS, 150 kHz, 72 h; FIG. 3
Experimental: as §1
NSCLC cells A549 were treated for 72 h with TTFields at an intensity of 1.62 V/cm RMS and a frequency of 150 kHz using the Inovitro system. TTFields were applied to the cells in the absence or presence of the Trop2 inhibitor Sacituzumab Govitecan. Treated cells were counted using a flow cytometer, and cytotoxic effect was calculated relative to control cells.

[7] = test system: 4T1 cells; assay: as above; format: cell-based, mouse; details: concomitant with TTFields 1.62 V/cm RMS, 150 kHz, 72 h; FIG. 9
Experimental: as §1
Mammary carcinoma cells 4T1 were treated for 72 h with TTFields at an intensity of 1.62 V/cm RMS and a frequency of 150 kHz using the Inovitro system. TTFields were applied to the cells in the absence or presence of the Trop2 inhibitor Sacituzumab Govitecan. Treated cells were counted using a flow cytometer, and cytotoxic effect was calculated relative to control cells.

[8] = test system: A549 cells; assay: Apoptosis, annexin V / 7AAD flow cytometry, TTFields with or without Sacituzumab Govitecan; format: cell-based, human; details: concomitant with TTFields 1.62 V/cm RMS, 150 kHz, 72 h, FIG. 5
Experimental: as §2, with “[…] NSCLC cells” for “Lastly, like”, “A549” for “A549 cells (FIGS. 5) and A2780 cells (FIG. 8), concomitant treatment of TTFields with Sacituzumab Govitecan enhanced the apoptotic effect in 4T1 cells (FIG. 11). Mammary carcinoma cells 4T1”, “cytometer.” for “cytometer. AnnexinV−7AAD−, live cells; AnnexinV+7AAD−, cells at early apoptosis; AnnexinV+7AAD+, cells at late apoptosis.”

[9] = test system: A2780 cells; assay: as above; format: cell-based, human; details: concomitant with TTFields 1.62 V/cm RMS, 200 kHz, 72 h, FIG. 8
Experimental: Tests were performed on three different cell types: A549, A2780 and 4T1. A549 cells are adenocarcinomec human alveolar basal epithelial cells. A2780 is a human ovarian cancer cell line. 4T1 is a breast cancer cell line derived from the mammary gland tissue of a mouse BALB/c strain. […] Ovarian carcinoma cells A2780 were treated for 72 h with TTFields at an intensity of 1.62 V/cm RMS and a frequency of 200 kHz using the Inovitro system. TTFields were applied to the cells in the absence or presence of the Trop2 inhibitor Sacituzumab Govitecan. Treated cells were double-stained with FITC-conjugated annexin V and 7-aminoactinomycin D (7AAD), and data acquisition was performed using a flow cytometer.

In the case of Sacituzumab Govitecan, the “overall effect in A2780 cells (cytotoxic x clonogenic effects)” value [1] is reported as “synergistically elevated”, the “A2780 cell growth (cytotoxic effect relative to control cells)” value [2] is reported as “synergistically inhibited” and the “apoptotic effect in 4T1 cells” value [3] is reported as “enhanced”. The “overall effect in A549 cells (cytotoxic x clonogenic effects)” value [4] was “synergistically elevated”, the “overall effect in 4T1 cells (cytotoxic x clonogenic effects)” value [5] was “synergistically elevated” and the “A549 cell growth (cytotoxic effect relative to control cells)” value [6] was “synergistically inhibited”. For the same substance, the “4T1 cell growth (cytotoxic effect relative to control cells)” value [7] was “synergistically inhibited”, the “apoptotic effect in A549 cells” value [8] was “enhanced” and the “apoptotic effect in A2780 cells” value [9] was “enhanced”.
